Reference: patent publication EP3330286A1

Experiments:
Assay in all cases: indirect ELISA, antigen coated, negative control
[1] = target: MPB70 recombinant protein (Mycobacterium bovis) (UniProt P0A669)
[2] = target: p22 immunogenic composition
[3] = target: MPB83 recombinant protein (Mycobacterium bovis) (UniProt P0CAX7)
[4] = target: bovine tuberculin purified protein derivative (PPDb)
[5] = target: mixture of MPB70 and MPB83 recombinant proteins
[6] = target: p10 protein (ESAT-6) (Mycobacterium bovis) (UniProt P0A565)
UniProt P0A565, sequence (P0A565 2-95 limits assumed): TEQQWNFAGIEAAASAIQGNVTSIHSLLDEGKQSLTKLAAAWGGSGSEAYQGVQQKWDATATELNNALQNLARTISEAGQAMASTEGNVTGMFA

UniProt P0CAX7, sequence (P0CAX7 25-220 limits assumed): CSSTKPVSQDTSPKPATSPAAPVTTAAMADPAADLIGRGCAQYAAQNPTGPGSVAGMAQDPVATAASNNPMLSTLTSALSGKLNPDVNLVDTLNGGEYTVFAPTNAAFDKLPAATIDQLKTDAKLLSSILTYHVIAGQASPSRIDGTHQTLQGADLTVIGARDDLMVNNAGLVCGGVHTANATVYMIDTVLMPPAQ
UniProt P0A669, sequence (P0A669 31-193 limits assumed): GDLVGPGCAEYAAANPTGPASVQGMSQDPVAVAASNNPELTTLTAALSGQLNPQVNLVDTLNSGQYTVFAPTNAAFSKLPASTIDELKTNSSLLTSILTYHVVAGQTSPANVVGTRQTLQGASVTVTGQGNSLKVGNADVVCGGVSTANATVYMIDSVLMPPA

## Control -
[1]
  optical density: 0.08 OD
[2]
  optical density: 0.07 OD
[3]
  optical density: 0.07 OD
[4]
  optical density: 0.06 OD
[5]
  optical density: 0.07 OD
[6]
  optical density: 0.06 OD
